Experiment [1] concerns the target T1, human PTHR2 (human, UniProt P49190 25-550).
T1 construct: whole, on cells; Stably expressed on HEK293 cells; also called hPTHR2
As to the kind of experiment: flow cytometry, AlexaFluor647-VHH on stably transfected HEK293 cells. As to the method:
(§1) FIGS. 14A-14B: Binding of VHHs to HEK293 cell lines stably transfected with PTHRs. (FIG. 14A) Analysis of VHH binding to PTHR1, PTHR2 and variants by flow cytometry. HEK293 cell lines in suspension were incubated on ice with 100 nM VHH sortagged with Alexafluor647, pelleted by centrifugation, washed and analyzed. Data for PTHR1-GFP is found in FIGS. 17A to 17C. (FIG. 14B) Analysis of VHH binding with microscopy. […] Following staining, cells were washed and treated with fixative in preparation for image acquisition either immediately after staining (0 m) or following a 15-minute incubation in medium at room temperature (15 m).
(§2) Suspensions of cells in PBS were stained for 1 hour on ice in the presence of indicated concentrations of VHH probes functionalized with Alexafluor647. Cells were pelleted by centrifugation and washed with PBS prior to analysis by flow cytometry (BD Accuri C6). Gating was performed on forward scatter/side scatter profiles to analyze intact cells. Data was analyzed using FlowJo version 7.6. The median fluorescent intensity (MFI) of stained cells was used to generate VHH binding dose response curves (FIG. 20).
(§3) It was determined whether VHHs bound to their intended targets on live cells by flow cytometry (FIG. 14A).
(Flow cytometry measures light scatter and fluorescence of single cells or particles in a stream.)

Experiment [2] concerns the target T2, PTHR16E (human, UniProt Q03431 27-593).
T2 construct: Stably expressed on HEK293 cells; also called hPTHR16E
T2 chain: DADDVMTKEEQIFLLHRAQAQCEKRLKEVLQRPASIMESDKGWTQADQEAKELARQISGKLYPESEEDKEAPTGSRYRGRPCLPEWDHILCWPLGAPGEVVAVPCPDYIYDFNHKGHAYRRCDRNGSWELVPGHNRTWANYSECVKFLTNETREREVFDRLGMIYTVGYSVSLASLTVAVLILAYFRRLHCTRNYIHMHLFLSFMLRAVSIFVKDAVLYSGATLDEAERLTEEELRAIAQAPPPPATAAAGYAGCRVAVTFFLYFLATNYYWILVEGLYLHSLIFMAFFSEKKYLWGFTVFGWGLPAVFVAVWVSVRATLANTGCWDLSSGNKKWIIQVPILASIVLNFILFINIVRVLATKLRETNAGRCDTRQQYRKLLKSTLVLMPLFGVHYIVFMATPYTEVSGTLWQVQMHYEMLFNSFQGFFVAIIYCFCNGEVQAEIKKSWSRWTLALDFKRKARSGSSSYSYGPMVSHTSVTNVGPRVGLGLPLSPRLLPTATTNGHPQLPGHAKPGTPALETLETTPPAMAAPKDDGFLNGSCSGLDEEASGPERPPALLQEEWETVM
Kind of experiment: flow cytometry, AlexaFluor647-VHH titrated on HEK293 cells expressing the receptor (MFI). The protocol: as §2
(§4) It was determined whether VHHs bound to their intended targets on live cells by flow cytometry (FIG. 14A). […] To estimate the affinity of the selected VHH for their targets flow cytometry was used to quantify binding.

For experiment [3], the target named is T3, Human PTHR1 WT (human, UniProt Q03431 27-593).
T3 construct: Stably expressed on HEK293 cells (GP2.3); also called hPTHR1; wild-type PTHR1
T3 sequence: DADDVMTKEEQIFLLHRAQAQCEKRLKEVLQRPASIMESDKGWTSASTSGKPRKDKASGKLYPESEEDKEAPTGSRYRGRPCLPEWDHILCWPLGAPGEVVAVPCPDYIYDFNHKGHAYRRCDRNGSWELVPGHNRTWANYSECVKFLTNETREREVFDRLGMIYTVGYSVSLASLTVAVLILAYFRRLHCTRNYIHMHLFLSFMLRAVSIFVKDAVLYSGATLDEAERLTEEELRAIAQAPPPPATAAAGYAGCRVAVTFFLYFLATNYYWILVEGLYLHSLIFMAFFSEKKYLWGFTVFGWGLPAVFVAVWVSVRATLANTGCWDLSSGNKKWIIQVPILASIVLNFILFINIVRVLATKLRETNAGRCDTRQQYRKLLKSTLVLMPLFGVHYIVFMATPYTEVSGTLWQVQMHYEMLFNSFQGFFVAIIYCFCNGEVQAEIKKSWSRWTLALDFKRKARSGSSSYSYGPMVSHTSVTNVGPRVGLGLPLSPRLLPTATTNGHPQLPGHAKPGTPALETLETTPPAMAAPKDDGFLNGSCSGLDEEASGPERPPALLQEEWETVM
As to the kind of experiment: flow cytometry, AlexaFluor647-VHH titrated on HEK293 cells expressing the receptor (MFI); plateau estimated. The protocol:
as §2, §4

For experiment [4], the target named is T4, PTHR1GFP (human, UniProt Q03431 95-593).
T4 construct: Human PTHR1 with the pH-sensitive GFP variant pHluorin2 inserted in the exon 2 portion; Stably expressed on HEK293 cells (GPG10); also called hPTHR1-GFP; hPTHR1GFP
The experiment is described as above. As to the method: as §2, §4

Experiment [5] concerns the target T5, rat PTHR1 (rat, UniProt P25961 27-591).
T5 construct: whole, on cells; Stably expressed on HEK293 cells (GR35); also called rPTHR1
T5 sequence (looked up): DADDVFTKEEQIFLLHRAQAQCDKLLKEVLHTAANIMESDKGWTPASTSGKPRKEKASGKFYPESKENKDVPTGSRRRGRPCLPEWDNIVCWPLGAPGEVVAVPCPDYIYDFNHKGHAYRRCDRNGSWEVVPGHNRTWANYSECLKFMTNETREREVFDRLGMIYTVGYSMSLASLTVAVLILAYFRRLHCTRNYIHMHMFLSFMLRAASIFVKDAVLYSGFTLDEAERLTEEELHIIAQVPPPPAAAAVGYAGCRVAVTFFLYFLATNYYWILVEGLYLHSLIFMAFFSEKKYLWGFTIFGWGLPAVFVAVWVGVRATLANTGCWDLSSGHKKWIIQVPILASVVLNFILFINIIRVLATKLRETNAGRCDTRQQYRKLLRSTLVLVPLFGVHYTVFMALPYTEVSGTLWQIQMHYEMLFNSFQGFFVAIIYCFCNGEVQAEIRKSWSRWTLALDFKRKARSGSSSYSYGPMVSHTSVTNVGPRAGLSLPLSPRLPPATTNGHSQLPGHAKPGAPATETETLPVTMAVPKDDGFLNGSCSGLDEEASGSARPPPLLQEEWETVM
The description is as above. As to the method: as §2, §4

For experiment [6], the target named is T2, PTHR16E. The experiment is described as above. As to the method: as §2, §4
Experiment [7] has as its target T6, PTHR1YFPΔECD (human).
T6 construct: PTHR1 in which YFP replaces the entire extracellular domain; Stably expressed on HEK293 cells (GD5); also called Human PTHR1-delNT-YFP; hPTHR1YFPΔECD
As to the kind of experiment: flow cytometry, AlexaFluor647-VHH on stably transfected HEK293 cells. As to the method:
as §1, §2, §3

Experiment [8] concerns the target T6, PTHR1YFPΔECD. Kind of experiment: cell-based or functional assay.
In experiment [9] the target is T5, rat PTHR1. Kind of experiment: cell-based or functional assay.
The target of experiment [10] is T6, PTHR1YFPΔECD. As to the kind of experiment: cell-based or functional assay. This is another data set of the same source.

Consider 4 molecules from US20200316217A1 (CHILDREN S MEDICAL CENTER, published 2020).

Ends that are not written are not given here.

T1 sequence (P49190 25-550): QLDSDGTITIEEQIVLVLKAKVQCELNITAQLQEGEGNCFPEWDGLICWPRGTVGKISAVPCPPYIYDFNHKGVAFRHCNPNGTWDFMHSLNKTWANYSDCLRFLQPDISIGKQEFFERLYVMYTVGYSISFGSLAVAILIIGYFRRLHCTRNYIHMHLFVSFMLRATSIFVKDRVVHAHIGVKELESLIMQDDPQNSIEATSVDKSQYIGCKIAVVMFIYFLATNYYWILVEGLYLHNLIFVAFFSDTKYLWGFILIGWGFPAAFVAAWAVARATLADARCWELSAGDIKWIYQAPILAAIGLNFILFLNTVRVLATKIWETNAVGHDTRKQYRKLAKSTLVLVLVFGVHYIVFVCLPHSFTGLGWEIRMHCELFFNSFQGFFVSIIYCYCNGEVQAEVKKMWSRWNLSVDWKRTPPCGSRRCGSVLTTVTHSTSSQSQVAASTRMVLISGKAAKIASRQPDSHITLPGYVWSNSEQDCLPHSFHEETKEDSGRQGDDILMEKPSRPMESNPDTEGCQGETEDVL

B1: VHHGFP (VHH)
VHH: QVQLQESGGALVQPGGSLRLSCAASGFPVNRYSMRWYRQAPGKEREWVAGMSSAGDRSSYEDSVKGRFTISRDDARNTVYLQMNSLKPEDTAVYYCNVNVGFEYWGQGTQVTVSS
modifications: C-terminus sortagged to a GGG-probe (AlexaFluor647 or biotin-azide)
notes: also called VHH Enhancer; VHH-enhancer
As for B1, the binding result in experiment [1] is “no binding (tested: 100 nM)”.

B2: VHH6E (VHH)
VHH: QVQLQESGGGLVQPGGSLRLSCAASGFVFENSAMAWYRQAPGKERELIAVIGTTFIKLAESVKGRFTISRDNAKSTVYLQMNNLKPEDTAVYYCSKSGAYWGQGTQVTVSS
modifications: C-terminus sortagged to a GGG-probe (AlexaFluor647, tetramethylrhodamine or biotin-azide)
notes: It recognises a 14-mer from UBC6e; also called VHH05; VHH005
For the molecule B2, the binding result in [1] is given as “no binding (tested: 100 nM)”. In experiment [2], this molecule returned an EC50 of less than 10 nM.

B3: VHHPTHR (VHH)
VHH: EVQLVESGGGLVQAGGSLRLSCAASGNIFANNIMGWYRQPPGKEREFVAHVSHDGDSMYAVSVKGRFAISRKDATNLYLQMNSLKPEDTAIYFCRLLNIPTQGRMEGFWGQGTQVTVSS
modifications: C-terminus sortagged to a GGG-probe (AlexaFluor647, tetramethylrhodamine or biotin-azide)
notes: The label depends on the assay; also called VHH22A3; 22A3
On to B3, for which the EC50 in [3], in [4], in experiment [5] and in experiment [6] was 100 to 200 nM each time. Besides, the binding result in experiment [7] and in experiment [1] was “no binding (tested: 100 nM)” each time.
As to SVSEIQLMHNLGKHLNSMERVEWLRKKLQDVHNF-NH2 [PTH(1-34)], the “Stimulation of receptor (cAMP), EC50” value in [8] was 689 nM. Moreover, the “cAMP induction Max (normalized)” value in experiment [9] amounted to 1 normalized. In experiment [10], the “cAMP induction EC50” value is 689 nM and the “cAMP induction Max (normalized)” value was determined as 1 normalized.

What is called EC50 is the concentration giving half of the maximal effect.
